# T1: GOX1462 (Gluconobacter oxydans, UniProt Q5FQY5)
# T1 construct: recombinant N-terminal His-tagged protein
# T1 sequence (Q5FQY5 1-359): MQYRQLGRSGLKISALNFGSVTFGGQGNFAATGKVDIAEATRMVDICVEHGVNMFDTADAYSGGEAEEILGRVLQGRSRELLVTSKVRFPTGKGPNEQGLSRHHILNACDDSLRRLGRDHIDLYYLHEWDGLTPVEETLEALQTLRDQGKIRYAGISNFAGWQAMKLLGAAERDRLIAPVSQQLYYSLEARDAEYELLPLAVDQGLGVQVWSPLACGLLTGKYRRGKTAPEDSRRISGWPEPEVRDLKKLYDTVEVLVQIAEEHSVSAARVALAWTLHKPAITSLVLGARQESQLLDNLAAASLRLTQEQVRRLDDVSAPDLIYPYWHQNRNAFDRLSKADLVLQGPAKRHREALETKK
# T2: GOX0716 (Gluconobacter oxydans, UniProt Q5FT03)
# T2 construct: recombinant N-terminal His-tagged protein
# T2 sequence (Q5FT03 1-257): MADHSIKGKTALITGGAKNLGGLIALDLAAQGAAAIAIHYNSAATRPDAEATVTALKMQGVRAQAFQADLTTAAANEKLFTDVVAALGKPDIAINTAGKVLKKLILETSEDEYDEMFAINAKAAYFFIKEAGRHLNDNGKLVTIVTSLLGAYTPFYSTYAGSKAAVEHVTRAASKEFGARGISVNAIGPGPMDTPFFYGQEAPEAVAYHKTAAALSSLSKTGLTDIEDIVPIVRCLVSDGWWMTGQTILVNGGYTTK
# Assays:
# GOX1462 = target: T1, GOX1462; assay: tryptophan fluorescence quenching; assay type: binding
# GOX0716 = target: T2, GOX0716; assay: tryptophan fluorescence quenching; assay type: binding
# purified protein [1] = substrate: O=C1C(=O)c2ccccc2-c2ccccc21; assay: purified protein; assay type: biochemical, Gluconobacter oxydans; conditions: NADPH
# purified protein [2] = substrate: CCCC=O; assay: purified protein; assay type: biochemical, Gluconobacter oxydans; conditions: NADPH
# purified protein [3] = substrate: O=C1C=C2C(=CCOC2O)O1; assay: purified protein; assay type: biochemical, Gluconobacter oxydans
# purified protein [4] = substrate: O=C1Nc2ccccc2C1=O; assay: purified protein; assay type: biochemical, Gluconobacter oxydans; conditions: NADPH
# [5] = substrate: CCCCCCC=O; assay: purified protein, by the assay type; design: steady-state Michaelis-Menten kinetics of carbonyl substrate reduction, NADPH consumption at 340 nm, 25 °C; conditions: 25.0 °C
# Protocol: (§1) For substrate specificity, kinetic measurements were performed at 25 °C in triplicate in 100 mM potassium phosphate buffer, pH 6.0 (for GOX0716) or pH 7.0 (for GOX1462). Substrate utilization was monitored by the decrease in the level of NADPH at 340 nm using a BioTek Epoch 2 microplate reader. Reactions were conducted in a total volume of 200 μL. The molar extinction coefficient of NADPH was determined by constructing a linear regression standard line using NADPH standards of known concentrations. One unit (1 U) of enzyme activity is defined as the amount of enzyme required to oxidize 1 μmol NADPH per minute. Stock solutions of substrates were prepared in dimethyl sulfoxide (DMSO). All kinetic data fitting was performed using nonlinear regression with GraphPad Prism, version 8. All data were fitted to the Michaelis–Menten equation. The kinetic parameters for each enzyme were determined at their respective pH optimum.
# [6] = substrate: CCC=O; assay: purified protein, by the assay type; design: steady-state Michaelis-Menten kinetics of carbonyl substrate reduction, NADPH consumption at 340 nm, 25 °C; conditions: 25.0 °C
# Protocol: as §1
# [7] = substrate: CCCCCC=O; assay: purified protein, by the assay type; design: steady-state Michaelis-Menten kinetics of carbonyl substrate reduction, NADPH consumption at 340 nm, 25 °C; conditions: 25.0 °C
# Protocol: as §1
# [8] = substrate: CC(=O)C=O; assay: purified protein, by the assay type; design: steady-state Michaelis-Menten kinetics of carbonyl substrate reduction, NADPH consumption at 340 nm, 25 °C; conditions: 25.0 °C
# Protocol: as §1
# [9] = substrate: O=CC(O)CO; assay: purified protein, by the assay type; design: steady-state Michaelis-Menten kinetics of carbonyl substrate reduction, NADPH consumption at 340 nm, 25 °C; conditions: 25.0 °C
# Protocol: as §1
# [10] = substrate: O=Cc1ccccc1; assay: purified protein, by the assay type; design: steady-state Michaelis-Menten kinetics of carbonyl substrate reduction, NADPH consumption at 340 nm, 25 °C; conditions: 25.0 °C
# Protocol: as §1
# purified protein [11] = substrate: O=Cc1ccco1; assay: purified protein; assay type: biochemical, Gluconobacter oxydans; conditions: NADPH
# [12] = substrate: CCCC=O; assay: purified protein, by the assay type; design: steady-state Michaelis-Menten kinetics of carbonyl substrate reduction, NADPH consumption at 340 nm, 25 °C; conditions: 25.0 °C
# Protocol: as §1
# [13] = substrate: O=CCO; assay: purified protein, by the assay type; design: steady-state Michaelis-Menten kinetics of carbonyl substrate reduction, NADPH consumption at 340 nm, 25 °C; conditions: 25.0 °C
# Protocol: as §1
# [14] = NADPH docked as the ring-opened aldehyde form: hydrogen bonds with catalytic Tyr61, Ser157 and Asn158
# [15] = NADPH docked as the ring-opened aldehyde form: hydrogen bonds with catalytic Tyr159 and Thr146, Tyr156, Glu201, Pro191, Pro189
molecule,measurement,setting,value
NC(=O)C1=CN([C@@H]2O[C@H](COP(=O)(O)OP(=O)(O)OC[C@H]3O[C@@H](n4cnc5c(N)ncnc54)[C@H](OP(=O)(O)O)[C@@H]3O)[C@@H](O)[C@H]2O)C=CC1 [NADPH],Kd,GOX1462,30.3 ± 3.56 µM
same,Kd,GOX0716,20.5 ± 2.86 µM
"GOX1462 (Gluconobacter oxydans 621H) (protein, recombinant N-terminal His-tagged protein) MQYRQLGRSGLKISALNFGSVTFGGQGNFAATGKVDIAEATRMVDICVEHGVNMFDTADAYSGGEAEEILGRVLQGRSRELLVTSKVRFPTGKGPNEQGLSRHHILNACDDSLRRLGRDHIDLYYLHEWDGLTPVEETLEALQTLRDQGKIRYAGISNFAGWQAMKLLGAAERDRLIAPVSQQLYYSLEARDAEYELLPLAVDQGLGVQVWSPLACGLLTGKYRRGKTAPEDSRRISGWPEPEVRDLKKLYDTVEVLVQIAEEHSVSAARVALAWTLHKPAITSLVLGARQESQLLDNLAAASLRLTQEQVRRLDDVSAPDLIYPYWHQNRNAFDRLSKADLVLQGPAKRHREALETKK",Km,purified protein [1],31.9 ± 4.85 µM
same,kcat,purified protein [1],5.79 ± 0.234 s⁻¹
same,kcat/Km,purified protein [1],182000 ± 28600 M⁻¹ s⁻¹
same,Km,purified protein [2],139 ± 14.4 µM
same,kcat,purified protein [2],0.0241 ± 0.000654 s⁻¹
same,kcat/Km,purified protein [2],173 ± 18.5 M⁻¹ s⁻¹
same,Km,purified protein [3]; [14],178 ± 25.4 µM
same,kcat,purified protein [3]; [14],0.0389 ± 0.00145 s⁻¹
same,kcat/Km,purified protein [3]; [14],219 ± 32.3 M⁻¹ s⁻¹
same,Km,purified protein [4],107 ± 17.1 µM
same,kcat,purified protein [4],0.163 ± 0.00536 s⁻¹
same,kcat/Km,purified protein [4],1520 ± 248 M⁻¹ s⁻¹
same,Km,[5],178 ± 15.6 µM
same,kcat,[5],0.027 ± 0.000671 s⁻¹
same,kcat/Km,[5],152 ± 13.8 M⁻¹ s⁻¹
same,Km,[6],164 ± 13.7 µM
same,kcat,[6],0.0228 ± 0.000523 s⁻¹
same,kcat/Km,[6],139 ± 12 M⁻¹ s⁻¹
same,Km,[7],513 ± 141 µM
same,kcat,[7],0.0251 ± 0.00251 s⁻¹
same,kcat/Km,[7],48.9 ± 14.3 M⁻¹ s⁻¹
same,Km,[8],1990 ± 238 µM
same,kcat,[8],0.221 ± 0.0159 s⁻¹
same,kcat/Km,[8],111 ± 15.5 M⁻¹ s⁻¹
same,Km,[9],483 ± 85.9 µM
same,kcat,[9],0.0181 ± 0.00121 s⁻¹
same,kcat/Km,[9],37.5 ± 7.12 M⁻¹ s⁻¹
same,Km,[10],258 ± 37.7 µM
same,kcat,[10],0.0184 ± 0.000807 s⁻¹
same,kcat/Km,[10],71.3 ± 10.9 M⁻¹ s⁻¹
"GOX0716 (Gluconobacter oxydans 621H) (protein, recombinant N-terminal His-tagged protein) MADHSIKGKTALITGGAKNLGGLIALDLAAQGAAAIAIHYNSAATRPDAEATVTALKMQGVRAQAFQADLTTAAANEKLFTDVVAALGKPDIAINTAGKVLKKLILETSEDEYDEMFAINAKAAYFFIKEAGRHLNDNGKLVTIVTSLLGAYTPFYSTYAGSKAAVEHVTRAASKEFGARGISVNAIGPGPMDTPFFYGQEAPEAVAYHKTAAALSSLSKTGLTDIEDIVPIVRCLVSDGWWMTGQTILVNGGYTTK",Km,purified protein [1],46.9 ± 8.17 µM
same,kcat,purified protein [1],3.14 ± 0.181 s⁻¹
same,kcat/Km,purified protein [1],67000 ± 12300 M⁻¹ s⁻¹
same,Km,purified protein [11],94.8 ± 8.91 µM
same,kcat,purified protein [11],0.0103 ± 0.000223 s⁻¹
same,kcat/Km,purified protein [11],109 ± 0.0964 M⁻¹ s⁻¹
same,Km,purified protein [3]; [15],1300 ± 213 µM
same,kcat,purified protein [3]; [15],0.0468 ± 0.00402 s⁻¹
same,kcat/Km,purified protein [3]; [15],36 ± 6.66 M⁻¹ s⁻¹
same,Km,purified protein [4],282 ± 40.3 µM
same,kcat,purified protein [4],0.127 ± 0.00588 s⁻¹
same,kcat/Km,purified protein [4],450 ± 67.6 M⁻¹ s⁻¹
same,Km,[5],637 ± 72.8 µM
same,kcat,[5],0.0402 ± 0.00191 s⁻¹
same,kcat/Km,[5],63.1 ± 7.81 M⁻¹ s⁻¹
same,Km,[6],417 ± 52.1 µM
same,kcat,[6],0.0442 ± 0.00201 s⁻¹
same,kcat/Km,[6],106 ± 14.1 M⁻¹ s⁻¹
same,Km,[7],509 ± 71.7 µM
same,kcat,[7],0.00946 ± 0.000516 s⁻¹
same,kcat/Km,[7],18.6 ± 2.81 M⁻¹ s⁻¹
same,Km,[12],351 ± 40.4 µM
same,kcat,[12],0.0339 ± 0.00135 s⁻¹
same,kcat/Km,[12],96.6 ± 11.8 M⁻¹ s⁻¹
same,Km,[13],607 ± 110 µM
same,kcat,[13],0.00643 ± 0.000459 s⁻¹
same,kcat/Km,[13],10.6 ± 2.06 M⁻¹ s⁻¹
